In US10337022B2, “Methods of increasing root biomass in plants” (Agresearch Limited, priority 2014, dated 2019):

Key:
ryegrass plants = assay: Root biomass analysis of ryegrass transformants; format: in vivo; settings: approximately 6 weeks in glasshouse
Experimental: (§1) An equal number (typically 4-10) of tillers were taken from WT and ryegrass plants transformed with Arabidopsis PPD under a constitutive promoter. Tillers were planted into plastic grow bags containing potting mix and pruned to be of equal height. […] The increase in root biomass was quantified by washing the roots under running water then removing the attached above ground portion (leaves and stems) and drying the roots at 65° C. for 48 hr then weighing the dry weights (Table 2).
as §1, with “one of three root promoters.” for “a constitutive promoter.”, “3 and Table 4)” for “2).”

[1] = test system: alfalfa (variety USD5) plants; assay: Root biomass analysis of alfalfa transformants; format: in vivo; settings: constitutive promoter, approximately 6 weeks in growth cabinet
Experimental: Cuttings of approximately equal size were taken from WT and alfalfa (variety USD5) plants transformed with Arabidopsis PPD under a constitutive promoter. Cuttings were planted into plastic grow bags containing potting mix. […] The increase in root biomass was quantified by washing the roots under running water (these were photographed, FIG. 12) then the attached above ground portion (leaves and stems) was removed and the roots dried at 65° C. for 48 hr then weighed Table 5.

[2] = test system: PEAPOD deletion mutant Δppd Arabidopsis thaliana ecotype Landsberg erecta; assay: Complementation of the Arabidopsis Δppd mutant leaf phenotype; format: in vivo; settings: optimized PEAPOD coding sequence under CaMV35s promoter, seedlings (FIG. 13)
Excerpt: The functionality of any PEAPOD sequence can be confirmed by complementation of the Arabidopsis Δppd mutant leaf phenotype. Complementation of the Arabidopsis Δppd mutant leaf phenotype was first used to identify the Arabidopsis PPD gene (White 2006). This was seen by a restoration of the wild type flattened leaf phenotype and normal rosette shape as opposed to the domed leaf and the twisting of the rosette to a “propeller” phenotype.
Constructs above can be transformed into Arabidopsis by the floral dip infiltration method (Clough and Bent, 1998 Plant J 16, 735-43). The Δppd line is transformed to express the PPD polypeptides by standard techniques. Transgenic plants are confirmed by standard PCR analysis techniques with a combination of transgene-specific and T-DNA primers.
Complementation of the Δppd line to produce a wild-type leaf and rosette phenotype in T1 seedlings (the off-spring of the infiltrated plant) confirms PEAPOD functionality of the introduced gene, which can be shown in photographs.

BZR1 [3] = biological target: T1, BZR1 (Arabidopsis thaliana, UniProt Q8S307); assay: Yeast two hybrid (Y2H) interaction with BZR1; format: binding; settings: yeast strain MaV203
T1 construct: expressed in transfected cells; host or cells: yeast strain MaV203
T1 sequence (Q8S307 with tags, fused parts or gaps): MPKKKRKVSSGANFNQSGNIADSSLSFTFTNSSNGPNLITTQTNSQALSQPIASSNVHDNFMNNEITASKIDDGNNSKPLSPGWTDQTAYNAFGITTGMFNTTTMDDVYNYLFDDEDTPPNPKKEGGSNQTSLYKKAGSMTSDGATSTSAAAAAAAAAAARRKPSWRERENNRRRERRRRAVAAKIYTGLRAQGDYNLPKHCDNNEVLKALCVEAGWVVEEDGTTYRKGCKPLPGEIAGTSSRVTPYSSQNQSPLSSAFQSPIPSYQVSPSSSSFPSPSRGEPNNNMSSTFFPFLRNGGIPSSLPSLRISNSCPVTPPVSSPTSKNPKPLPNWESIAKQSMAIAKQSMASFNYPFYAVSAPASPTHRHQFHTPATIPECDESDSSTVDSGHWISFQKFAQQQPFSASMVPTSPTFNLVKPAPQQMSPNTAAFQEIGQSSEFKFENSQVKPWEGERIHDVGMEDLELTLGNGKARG
Experimental: Combinations of bait and prey constructs were used to co-transform yeast strain MaV203 (Invitrogen), with selection on synthetic dropout (SD) SD/-Leu/-Trp agar plates. Transformed strains were tested for interactions using 10 μl droplets of 1 in 10 and 1 in 100 dilutions on SD/-Leu/-Trp/-His plates with different concentrations of 3-aminotriazol (3-AT) (Sigma).

NINJA = biological target: T2, NINJA (Arabidopsis thaliana, UniProt Q9SV55); assay: BiFC interaction with NINJA in Nicotiana benthamiana leaves; format: cell-based; settings: in planta
T2 construct: expressed in transfected cells; host or cells: Nicotiana benthamiana leaves (Agrobacterium infiltration)
T2 sequence (Q9SV55 with tags, fused parts or gaps): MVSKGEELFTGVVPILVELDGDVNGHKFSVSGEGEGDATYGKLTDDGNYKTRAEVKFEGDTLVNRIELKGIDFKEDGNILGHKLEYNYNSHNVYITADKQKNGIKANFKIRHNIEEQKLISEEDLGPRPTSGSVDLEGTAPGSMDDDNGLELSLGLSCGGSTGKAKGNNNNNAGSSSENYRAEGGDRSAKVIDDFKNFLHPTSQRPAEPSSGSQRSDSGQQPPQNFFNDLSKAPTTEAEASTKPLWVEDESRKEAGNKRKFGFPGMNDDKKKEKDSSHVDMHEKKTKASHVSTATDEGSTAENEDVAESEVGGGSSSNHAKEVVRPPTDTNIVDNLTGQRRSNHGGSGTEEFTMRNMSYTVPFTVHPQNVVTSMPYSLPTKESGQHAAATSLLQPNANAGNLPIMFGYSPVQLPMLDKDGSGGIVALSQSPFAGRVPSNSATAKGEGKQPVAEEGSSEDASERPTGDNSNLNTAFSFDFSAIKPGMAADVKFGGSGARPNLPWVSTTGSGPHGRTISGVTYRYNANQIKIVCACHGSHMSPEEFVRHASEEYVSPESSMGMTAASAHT
Excerpt: (§2) The binary BiFC-Gateway YFP vectors pDEST-VYNE(R)^GW (Venus aa 1-173) and pDEST-VYCE(R)^GW (Venus aa 156-239) with N-terminal fusions, were used to construct the following vectors; pDESTnYFP-BZR1, pDESTnYFP-NINJA, pDESTnYFP-PPD1, pDESTcYFP-BZR1, pDESTcYFP-PPD1, pDESTcYFP-PPD1Δppd, pDESTcYFP-PPD1Δtify and pDESTcYFP-PPD1Δjas*. […] Plasmids for co-immunoprecipitation: A synthesised DNA construct encoding PPD1 with a 3×c-myc C-terminal fusion was sub-cloned into pRSh1 to produce pRSh1-PPD1-3×c-myc, while the NINJA cDNA sequence was sub-cloned into pB7FWG2,0 (Karimi et al 2002, Trends Plant Sci. 7, 193-195) to construct pB7FWG2-NINJA-GFP.
(§3) For infiltration Agrobacterium tumefaciens GV3101 strains containing the binary vectors were re-suspended from plates and prepared for transformation as described for the LUC assay. All YFP and expression strains were mixed in ratios of 1:1 (vol/vol) with the addition of strain P19 at 1/10th volume. Five leaf discs were sampled from each infiltrated leaf after 40 h. Two hours prior to sampling for microscopic fluorescence observations leaves were infiltrated with a 1 μg/ml DAPI solution to stain nuclei. YFP fluorescence and DAPI staining was detected using an Olympus Fluoview FV10i confocal laser scanning microscope. Each experiment was repeated twice.

BZR1 [4] = biological target: T3, BZR1 (Arabidopsis thaliana, UniProt Q8S307); assay: BiFC interaction with BZR1 in Nicotiana benthamiana leaves; format: cell-based
T3 construct: expressed in transfected cells; host or cells: Nicotiana benthamiana leaves (Agrobacterium infiltration)
T3 sequence (Q8S307 1-336): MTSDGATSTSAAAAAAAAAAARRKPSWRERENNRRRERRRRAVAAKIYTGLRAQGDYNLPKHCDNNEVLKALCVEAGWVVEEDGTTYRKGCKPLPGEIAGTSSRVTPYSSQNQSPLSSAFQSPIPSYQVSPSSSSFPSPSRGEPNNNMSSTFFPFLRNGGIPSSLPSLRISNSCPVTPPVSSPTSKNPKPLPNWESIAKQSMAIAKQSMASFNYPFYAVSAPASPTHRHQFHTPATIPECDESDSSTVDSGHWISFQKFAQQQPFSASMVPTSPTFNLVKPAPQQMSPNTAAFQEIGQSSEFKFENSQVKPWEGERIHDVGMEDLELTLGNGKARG
Excerpt: as §2, §3

B1: Arabidopsis PPD: Arabidopsis thaliana PEAPOD 1 protein, At4g14713, SEQ ID NO: 1 (protein, listed as Arabidopsis thaliana)
chain: MDVGVSPAKSILAKPLKLLTEEDISQLTREDCRKFLKDKGMRRPSWNKSQAIQQVLSLKALYEPGDDSGAGIFRKILVSQPVNPPRVTTTLIEPSNELEACGRVSYPEDNGACHRMDSPRSAEFSGGSGHFVSEKDGHKTTISPRSPAETSELVGQMTIFYSGKVNVYDGIPPEKARSIMHFAANPIDLPENGIFASSRMISKLISKEKMMELPQKGLEKANSSRDSGMEGQANRKVSLQRYREKRKDRKFSKAKKCPGVASSSLEMFLNCQPRMKAAYSQNLGCTGSPLHSQSPESQTKSPNLSVDLNSEGI
root growth beyond the grow bag compared to WT plants (ryegrass plants; constitutive promoter): increase in root biomass/growth/length/branching | root growth beyond the grow bag compared to WT plants (ryegrass plants; one of three root promoters): increase in root biomass/growth/length/branching | root growth beyond the grow bag compared to WT plants [1]: increase in root biomass/growth/length/branching | PEAPOD functionality by complementation of Δppd mutant [2]: functionally equivalent | Y2H direct interaction with BZR1 (BZR1 [3]): no direct interaction | BiFC interaction with NINJA (NINJA): interacted with NINJA in plants | BiFC interaction with BZR1 (BZR1 [4]; fully expanded leaves, co-expression of NINJA): restored | BiFC interaction with BZR1 (BZR1 [4]; pavement cells of immature Nicotiana benthamiana leaves): appears to interact with BZR1 in the nucleus
